From publication PMC3907296, “How a Retrotransposon Exploits the Plant's Heat Stress Response for Its Activation”

Molecular target: HSFA2 (Arabidopsis thaliana, UniProt O80982 1-345)
Assay: competition EMSA; unlabeled HRE fragment, 200-fold excess, competes with labeled LTR; 10 mM Tris pH 7.5, 1 mM EDTA, 0.1 M KCl, 0.1 mM DTT, 5% glycerol, 0.01 mg/ml BSA; RT 30 min; 5% native PAGE, 0.5x TBE
Details: protein: recombinant; tags: C-terminal 6xHis (pET-24b, NdeI/XhoI); chain copies: 3; blunt

Chain of HSFA2 (O80982 whole entry, the tested form may be a part): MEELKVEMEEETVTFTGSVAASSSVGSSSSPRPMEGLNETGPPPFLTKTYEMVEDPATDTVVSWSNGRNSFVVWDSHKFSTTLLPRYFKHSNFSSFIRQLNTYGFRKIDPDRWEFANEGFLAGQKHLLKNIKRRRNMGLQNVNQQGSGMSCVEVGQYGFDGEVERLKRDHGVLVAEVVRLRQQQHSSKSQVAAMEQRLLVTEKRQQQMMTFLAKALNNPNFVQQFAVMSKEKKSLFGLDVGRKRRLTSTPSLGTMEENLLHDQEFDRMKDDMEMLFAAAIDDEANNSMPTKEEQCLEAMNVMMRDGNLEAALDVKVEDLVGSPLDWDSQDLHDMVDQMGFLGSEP

B1: ONSEN LTR complete HRE, 51 bp (dsDNA)
DNA 1: CCACCTCCTTAAAAGATTCTAGAAATTTTCTAGAATCATCTTCCACCTCCT
DNA 2: AGGAGGTGGAAGATGATTCTAGAAAATTTCTAGAATCTTTTAAGGAGGTGG
- binding result: binds
